The results in this text go back to PMC10582078.

A short description of series [1]: live-cell imaging, rat hippocampal neuron axons. Particulars: glycan lost; control: WT NF-L.
Series [2] can be described thus: IFA of co-assembled filaments, SW13 vim− cells. The settings on record: glycan lost; control: WT NF-L.
Series [3] is described as follows: IP/IB, baseline. The settings on record: glycan lost; control: WT NF-L.
Series [4] is described as follows: differential extraction, NEFL−/− 293T, no OGT. The settings on record: glycan lost; control: WT NF-L without OGT.
Series [5] in a line: differential extraction, urea-fraction NF-L, 293T. The settings on record: glycan gained; control: WT NF-L without OGT.
Series [6] can be described thus: IP/IB. Particulars: glycan gained; control: WT NF-L without OGT.
Series [7] can be described thus: IFA of filaments, NEFL−/− SH-SY5Y. Particulars: glycan gained; control: WT NF-L without OGT.

B1: neurofilament-light (NF-L): NF-L4A (protein)
parent chain: MSSFSYEPYYSTSYKRRYVETPRVHISSVRSGYSTARSAYSSYSAPVSSSLSVRRSYSSSSGSLMPSLENLDLSQVAAISNDLKSIRTQEKAQLQDLNDRFASFIERVHELEQQNKVLEAELLVLRQKHSEPSRFRALYEQEIRDLRLAAEDATNEKQALQGEREGLEETLRNLQARYEEEVLSREDAEGRLMEARKGADEAALARAELEKRIDSLMDEISFLKKVHEEEIAELQAQIQYAQISVEMDVTKPDLSAALKDIRAQYEKLAAKNMQNAEEWFKSRFTVLTESAAKNTDAVRAAKDEVSESRRLLKAKTLEIEACRGMNEALEKQLQELEDKQNADISAMQDTINKLENELRTTKSEMARYLKEYQDLLNVKMALDIEIAAYRKLLEGEETRLSFTSVGSITSGYSQSSQVFGRSAYGGLQTSSYLMSTRSFPSYYTSHVQEEQIEVEETIEAAKAEEAKDEPPSEGEAEEEEKDKEEAEEEEAAEEEEAAKEESEEAKEEEEGGEGEEGEETKEAEEEEKKVEGAGEEQAAKKKD
For the protein B1, in series [1], the “other: suppression of mitochondrial motility” value is recorded as “abolishes”. Further, in series [2], the oligomerisation result is recorded as “decreases”. Besides, the “other: NF-L phosphorylation” value in series [3] was “increases”.

B2: neurofilament-light (NF-L): S431A (protein)
parent chain: B1 parent chain
For the protein B2, the oligomerisation result in series [4] is “no change”.

B3: neurofilament-light (NF-L): S27A (protein)
parent chain: B1 parent chain
Turning to B3, the oligomerisation result in series [4] is listed as “no change”.

B4: neurofilament-light (NF-L): S48A (protein)
parent chain: B1 parent chain
For the protein B4, the oligomerisation entry in series [4] was “no change”.

B5: neurofilament-light (NF-L): S34A (protein)
parent chain: B1 parent chain
Turning to B5, the oligomerisation entry in series [4] is “no change”.

B6: neurofilament-light (NF-L): OGT co-expression (protein)
parent chain: B1 parent chain
For B6, the oligomerisation result in series [5] and in series [7] was “decreases” throughout. Besides, the “other: NF-L phosphorylation” value in series [6] is reported as “decreases”.

B7: neurofilament-light (NF-L): T21A (protein)
parent chain: B1 parent chain
For B7, the oligomerisation entry in series [4] is on record as “no change”.

B8: neurofilament-light (NF-L): NF-L5A (protein)
parent chain: B1 parent chain
For the protein B8, the “other: NF-L phosphorylation” value in series [3] was “increases”.
